Reference: US20190025321A1 (WHITEHEAD INSTITUTE FOR BIOMEDICAL RESEARCH, published 2019)

B1: endogenous CASTOR1 (other, human, UniProt Q8WTX7 1-329, looked up)
chain: MELHILEHRVRVLSVARPGLWLYTHPLIKLLFLPRRSRCKFFSLTETPEDYTLMVDEEGFKELPPSEFLQVAEATWLVLNVSSHSGAAVQAAGVTKIARSVIAPLAEHHVSVLMLSTYQTDFILVREQDLSVVIHTLAQEFDIYREVGGEPVPVTRDDSSNGFPRTQHGPSPTVHPIQSPQNRFCVLTLDPETLPAIATTLIDVLFYSHSTPKEAASSSPEPSSITFFAFSLIEGYISIVMDAETQKKFPSDLLLTSSSGELWRMVRIGGQPLGFDECGIVAQIAGPLAAADISAYYISTFNFDHALVPEDGIGSVIEVLQRRQEGLAS
notes: Detected with an anti-CASTOR1 antiserum; also called GATSL3
B2: CASTOR1 homodimer (other, human, not shown: small tags and cut ends)
chain 1: B1 chain
chain 2: B1 chain
notes: also called CASTOR1-HA with CASTOR1-FLAG; CASTOR1-containing dimers
B3: recombinant CASTOR1 (Cellular Arginine Sensor for mTORC1; protein encoded by the GATS protein-like 3 gene) (other, human, UniProt Q8WTX7 1-329, looked up, not shown: small tags and cut ends)
chain: B1 chain
notes: Expressed from pRK5 vectors in HEK-293T cells; which tag was used depends on the experiment; also called GATSL3; CASTOR1-HA
B4: endogenous CASTOR2 (other, human, UniProt A6NHX0 1-329, looked up)
chain: MELHILEHRLQVASVAKESIPLFTYGLIKLAFLSSKTRCKFFSLTETPEDYTIIVDEEGFLELPSSEHLSVADATWLALNVVSGGGSFSSSQPIGVTKIAKSVIAPLADQNISVFMLSTYQTDFILVRERDLPFVTHTLSSEFTILRVVNGETVAAENLGITNGFVKPKLVQRPVIHPLSSPSNRFCVTSLDPDTLPAVATLLMDVMFYSNGVKDPMATGDDCGHIRFFSFSLIEGYISLVMDVQTQQRFPSNLLFTSASGELWKMVRIGGQPLGFDECGIVAQISEPLAAADIPAYYISTFKFDHALVPEENINGVISALKVSQAEKH
notes: Detected with an anti-CASTOR2 antiserum; also called GATSL2
B5: HA-metap2 (other, UniProt P50579 1-478, looked up, not shown: small tags and cut ends)
chain: MAGVEEVAASGSHLNGDLDPDDREEGAASTAEEAAKKKRRKKKKSKGPSAAGEQEPDKESGASVDEVARQLERSALEDKERDEDDEDGDGDGDGATGKKKKKKKKKRGPKVQTDPPSVPICDLYPNGVFPKGQECEYPPTQDGRTAAWRTTSEEKKALDQASEEIWNDFREAAEAHRQVRKYVMSWIKPGMTMIEICEKLEDCSRKLIKENGLNAGLAFPTGCSLNNCAAHYTPNAGDTTVLQYDDICKIDFGTHISGRIIDCAFTVTFNPKYDTLLKAVKDATNTGIKCAGIDVRLCDVGEAIQEVMESYEVEIDGKTYQVKPIRNLNGHSIGQYRIHAGKTVPIVKGGEATRMEEGEVYAIETFGSTGKGVVHDDMECSHYMKNFDVGHVPIRLPRTKHLLNVINENFGTLAFCRRWLDRLGESKYLMALKNLCDLGIVDPYPPLCDIKGSYTAQFEHTILLRPTCKEVVSRGDDY
notes: Negative control of the co-immunoprecipitations; also called metap2 control protein

Legend:
[1] = target: T1, endogenous GATOR2 complex (Seh1L, WDR59, WDR24, Sec13 and Mios) (human, UniProt Q9NXC5 1-875; Q96S15 1-790; Q6PJI9 1-974; P55735 2-322; Q96EE3 1-360, limits assumed); assay: co-immunoprecipitation, anti-FLAG IP of GATOR2 from a HEK-293T line with endogenously FLAG-tagged WDR59, immunoblot for endogenous CASTOR1
T1 construct: Five-subunit complex; In most blots its presence is read from the mios band; also called detected by mios
Protocol: (§1) FIG. 3A, FIG. 3B, FIG. 3C, FIG. 3D, FIG. 3E and FIG. 3F depict arginine regulates the interaction of GATOR2 with CASTOR1-homodimers and CASTOR1-CASTOR2 heterodimers in cells and in vitro. […] HEK-293T cells cotransfected with the indicated cDNAs were deprived of amino acids for 50 min or starved and restimulated with amino acids for 10 min. Anti-HA immunoprecipitates and cell lysates were analyzed by immunoblotting for levels of the indicated proteins. […] A HEK-293T cell line expressing endogenously FLAG-tagged WDR59 was treated as in (3A) and anti-FLAG immunoprecipitates were analyzed by immunoblotting for the indicated proteins. […] Cells were deprived of leucine, arginine, or all amino acids for 50 min, and restimulated for 10 min with the respective amino acids where indicated. Anti-HA immunoprecipitates were prepared and analyzed as in (3A). […] Anti-HA immunoprecipitates were prepared from HEK-293T cells expressing the indicated cDNAs and deprived of amino acids for 50 min. Indicated amino acids were added directly to the immunoprecipitates, which after re-washing, were analyzed as in (3A). […] The experiment was performed and analyzed as in (3D), except using the indicated concentrations of arginine. […] Anti-HA immunoprecipitates were prepared and analyzed as in (3A).

HA-metap2 [2] = target: B5; assay: co-immunoprecipitation, anti-HA IP from transfected HEK-293T cells, immunoblot for endogenous CASTOR1
[3] = target: T1, endogenous GATOR2 complex (Seh1L, …); assay: co-immunoprecipitation, anti-HA IP from HEK-293T cells deprived 50 min of all amino acids, leucine or arginine, or restimulated 10 min; immunoblot for endogenous mios
Protocol: as §1

[4] = target: complete GATOR2 complex, recombinant (WDR24-FLAG, WDR59, mios, sec13, seh1L co-expressed) (UniProt Q96S15 1-790; Q6PJI9 1-974; Q9NXC5 1-875; P55735 1-322; Q96EE3 1-360, limits assumed); assay: co-immunoprecipitation, anti-FLAG IP (bait WDR24-FLAG) from co-transfected HEK-293T cells, immunoblot for HA-tagged CASTOR1
Text: FIG. 7A, FIG. 7B, FIG. 7C, FIG. 7D, FIG. 7E and FIG. 7F depicts CASTOR1 and CASTOR2 homologs are present in vertebrates and invertebrates, and the CASTORs and Sestrins bind to distinct sites on GATOR2. […] Sequence alignments are colored with respect to sequence identity as in FIG. 1C. The first and second ACT domains are annotated above the alignment with blue and orange bars, respectively. […] The sequence alignment is annotated as in (7B). FIG. 7E depicts the GATOR2 components WDR24, mios, and seh1L form a minimal complex that is sufficient to co-immunoprecipitate CASTOR1. HEK-293T cells were cotransfected with the indicated cDNAs, and anti-FLAG immunoprecipitates were analyzed as in FIG. 1D.
Where indicated, for transient cotransfection experiments, 2 million HEK-293T cells were plated in 10 cm dishes and transfected 24 hrs later using the polyethylenimine method (Boussif et al., 1995) with the indicated pRK5-based expression vectors: 300 ng HA-metap2, 40 ng CASTOR1-HA, 80 ng CASTOR1-FLAG, 40 ng CASTOR2-HA, 80 ng CASTOR2-FLAG; 100 ng WDR24-FLAG, 100 ng WDR59, 100 ng mios, 150 ng sec13, 150 ng seh1L, 10 ng or 40 ng or 100 ng or 600 ng of myc-Sestrin2 or myc-CASTOR2; 2 ng FLAG-56K1, 15 ng or 60 ng HA-CASTOR2, 75 ng and 175 ng of CASTOR1-HA. The total amount of plasmid DNA in each transfection was normalized to 5 μg with empty pRK5. […]

GSK3β = target: T2, GSK3β (human, UniProt P49841); assay: control immunoprecipitation with an anti-GSK3β antibody from HEK-293T cells starved of or restimulated with amino acids
T2 construct: endogenous, untagged; also called endogenous GSK3β, control immunoprecipitation
Protocol: FIG. 9A, FIG. 9B, FIG. 9C, FIG. 9D and FIG. 9E depict arginine regulates the interaction of GATOR2 with CASTOR1-containing complexes in cells and in vitro. […] HEK-293T cells cotransfected with the indicated cDNAs and stably expressing the indicated shRNAs were deprived of amino acids in the cell media for 50 min. Anti-HA immunoprecipitates were analyzed by immunoblotting for the indicated proteins. […] HEK-293T cells were starved or restimulated with amino acids, and immunoprecipitates were prepared from these cells using an antibody directed against GSK3β or WDR24. Immunoprecipitates were analyzed by immunoblotting for the indicated proteins. […] Stable expression lines of HEK-293T cells stably expressing the denoted proteins were cotransfected with the indicated cDNAs and treated as in FIG. 3A. Anti-HA immunoprecipitates were analyzed by immunoblotting for the levels of indicated proteins. FIG. 9D depicts deprivation of arginine, but not leucine, is sufficient to promote the association of endogenous GATOR2 with recombinant CASTOR1-CASTOR2 heterodimers. HEK-293T cells cotransfected with the indicated cDNAs were treated and analyzed as in FIG. 3C. […] Anti-HA immunoprecipitates were prepared and analyzed as in FIG. 3E.

HA-metap2 [5] = target: B5; assay: co-immunoprecipitation, anti-HA IP from transfected HEK-293T cells
[6] = target: T1, endogenous GATOR2 complex (Seh1L, …); assay: co-immunoprecipitation, anti-HA IP from transfected HEK-293T cells starved of all amino acids 50 min, immunoblot for endogenous mios
Protocol: FIG. 8A depicts validation of the anti-serum used to detect endogenous CASTOR2. Lysates were prepared from HEK-293T lines stably expressing the indicated shRNAs and analyzed by immunoblotting for levels of indicated proteins. FIG. 8B depicts validation of the anti-serum used to detect endogenous CASTOR1. Lysates were prepared from HEK-293T stably lines expressing the indicated shRNAs and analyzed as in (8C). The arrow denotes the band corresponding to endogenous CASTOR1. […] HEK-293T cells were cotransfected with the indicated cDNAs in expression vectors, starved of all amino acids for 50 minutes, and anti-HA immunoprecipitates were analyzed as in FIG. 1D. […] HEK-293T cells were cotransfected with the indicated cDNAs in expression vectors, starved of all amino acids for 50 minutes, and anti-HA immunoprecipitates were analyzed as in FIG. 1D.

T2 sequence (P49841 whole entry): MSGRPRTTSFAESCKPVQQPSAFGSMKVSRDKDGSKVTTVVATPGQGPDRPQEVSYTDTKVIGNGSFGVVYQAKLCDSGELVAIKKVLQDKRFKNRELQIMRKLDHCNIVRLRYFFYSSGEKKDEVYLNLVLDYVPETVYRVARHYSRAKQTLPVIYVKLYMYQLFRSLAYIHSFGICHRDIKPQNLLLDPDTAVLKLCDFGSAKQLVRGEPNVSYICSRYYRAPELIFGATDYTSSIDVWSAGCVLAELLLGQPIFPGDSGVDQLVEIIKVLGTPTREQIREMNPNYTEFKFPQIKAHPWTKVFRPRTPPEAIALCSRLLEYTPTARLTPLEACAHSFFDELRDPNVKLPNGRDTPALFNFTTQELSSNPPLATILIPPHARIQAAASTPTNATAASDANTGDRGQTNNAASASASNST

Question: Does B1 bind [1]?
Answer: binds

Question: Does B1 bind (HA-metap2 [2])?
Answer: no binding

Question: Does B2 bind [3]?
Answer: binds

Question: Does B3 bind [4]?
Answer: binds

Question: Does B4 bind (GSK3β)?
Answer: no binding

Question: Does B4 bind (HA-metap2 [5])?
Answer: no binding

Question: Does B5 bind [6]?
Answer: no binding
